For series [1], the system named is CC(C)(O/N=C(\C(=O)N[C@@H]1C(=O)N2C(C(=O)[O-])=C(C[n+]3ccccc3)CS[C@H]12)c1csc(N)n1)C(=O)O. In words: purified protein. In kind it is biochemical, Klebsiella pneumoniae. The note with it: 50 mM morpholinepropanesulfonic acid pH 7.0, 50 mM NaCl, 100 mM sodium phosphate pH 7.0, 30°C.
Series [2] shares this test system. The series can be described thus: purified protein. The settings on record: 50 mM morpholinepropanesulfonic acid pH 7.0, 50 mM NaCl, 100 mM sodium phosphate pH 7.0, 30°C.

This passage reports Km, kcat and kcat/Km results from PMC7579404, “A Novel KPC Variant KPC-55 in Klebsiella pneumoniae ST307 of Reinforced Meropenem-Hydrolyzing Activity” (Frontiers in Microbiology, 2020).

For “KPC-2 (and its variant KPC-55 = KPC-2 Y264N) (Klebsiella pneumoniae)”, in series [1], the Michaelis-Menten constant (Km) (usually the substrate concentration at which the rate is half of its maximum) amounted to 0.28 ± 0.09 µM; the catalytic constant (kcat) (in general, the number of substrate molecules converted per active site and unit of time at saturation) is 0.02 ± 0.003 s⁻¹; the specificity constant (kcat/Km) – broadly, the second-order rate constant that governs catalysis at low substrate concentration – came to 70000 ± 20000 M⁻¹ s⁻¹.
Consider “KPC-2 (and its variant KPC-55 = KPC-2 Y264N) (Klebsiella pneumoniae; Y262N)”, for which, in series [2], the Km amounted to 0.40 ± 0.11 µM, the kcat came to 0.2 s⁻¹ and the kcat/Km was found to be 450000 M⁻¹ s⁻¹.
